The target of the test is histidine tagged PSMGFR peptide (MUC1* extra cellular domain). In words: SPR, histidine-tagged PSMGFR on 3.8% or 5.7% NTA SAM chip. In general terms: SPR reads the build-up and loss of mass on a sensor chip optically.
histidine tagged PSMGFR peptide (MUC1* extra cellular domain), sequence (peptide, as listed by the source): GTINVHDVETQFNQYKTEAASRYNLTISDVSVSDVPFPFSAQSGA

“NM23-S120G (100% hexamer preparation) (from UniProt P15531 1-152) (ligand)” yielded an SPR binding response (RUs) of 70 RU.

These data come from patent US20120156246A1.
